{"source": "paper PMC8663791", "about": "(2021)", "assay_in_all_cases": "activation reporter or marker", "key": {"[1]": {"target": "T1, ZNT8 1-20 peptide on HLA-DRB1*04:01 (human)", "T1 peptide": "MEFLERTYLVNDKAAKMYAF"}, "[2]": {"target": "IGRP 305-324 peptide on HLA-DRB1*04:01 (human)"}, "[3]": {"target": "IGRP 241-260 peptide on HLA-DRB1*04:01 (human)"}, "[4]": {"target": "T2, GAD65 113-132 peptide on HLA-DRB1*04:01 (human)", "T2 peptide": "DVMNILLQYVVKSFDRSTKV"}, "[5]": {"target": "T3, GAD65 553-572 peptide on HLA-DRB1*04:01 (human)", "T3 peptide": "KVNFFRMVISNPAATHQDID"}, "[6]": {"target": "T4, ZNT8 266-285 peptide on HLA-DRB1*04:01 (human)", "T4 peptide": "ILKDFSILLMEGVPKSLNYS"}, "[7]": {"target": "T5, GAD65 353-372 peptide on HLA-DRB1*04:01 (human)", "T5 peptide": "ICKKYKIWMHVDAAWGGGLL"}, "[8]": {"target": "T6, GAD65 105-124 peptide on HLA-DRB1*04:01 (human)", "T6 peptide": "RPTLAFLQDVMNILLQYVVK"}, "[9]": {"target": "GAD65 265-284 peptide on HLA-DRB1*04:01 (human)"}}}
{"binder": "Clone_1826 (TCR) alpha TRAV13-2 TRAJ20 CDR3: CAENRSDYKLSF beta TRBV28 TRBJ2-5 CDR3: CASSSQGQGKETQYF", "values": [{"measurement": "binding result", "setting": "[1]", "result": "recognises"}]}
{"binder": "Clone_2356 (TCR) alpha TRAV25 TRAJ36 CDR3: CAGQTGANNLFF beta TRBV4-3 TRBJ1-5 CDR3: CASSQEVGTVPNQPQHF", "values": [{"measurement": "binding result", "setting": "[2]", "result": "recognises"}]}
{"binder": "Clone_855 (TCR) alpha TRAV8-2 TRAJ27 CDR3: CVVSVGTNAGKSTF beta TRBV11-3 TRBJ2-2 CDR3: CASSFSGELFF", "values": [{"measurement": "binding result", "setting": "[3]", "result": "recognises"}]}
{"binder": "Clone_839 (TCR) alpha TRAV17 TRAJ6 CDR3: CATDEGGSYIPTF beta TRBV11-3 TRBJ2-2 CDR3: CASSFSGELFF", "values": [{"measurement": "binding result", "setting": "[4]", "result": "recognises"}]}
{"binder": "Clone_640 (TCR) alpha TRAV41 TRAJ49 CDR3: CAAAGNQFYF beta TRBV12-4 TRBJ2-1 CDR3: CASSFTYNEQFF", "values": [{"measurement": "binding result", "setting": "[4]", "result": "recognises"}]}
{"binder": "Clone_300 (TCR) alpha TRAV17 TRAJ22 CDR3: CATDSSSGSARQLTF beta TRBV5-1 TRBJ2-7 CDR3: CASSLVGGRVDWREQYF", "values": [{"measurement": "binding result", "setting": "[2]", "result": "recognises"}]}
{"binder": "Clone_896 (TCR) alpha TRAV12-2 TRAJ15 CDR3: CAVNPNQAGTALIF beta TRBV6-6 TRBJ1-5 CDR3: CASAPQEAQPQHF", "values": [{"measurement": "binding result", "setting": "[3]", "result": "recognises"}]}
{"binder": "Clone_2353 (TCR) alpha TRAV26-2 TRAJ48 CDR3: CILRDTISNFGNEKLTF beta TRBV7-9 TRBJ1-2 CDR3: CASSFGSSYYGYTF", "values": [{"measurement": "binding result", "setting": "[2]", "result": "recognises"}]}
{"binder": "Clone_1662 (TCR) alpha TRAV13-1 TRAJ41 CDR3: CAASGANSGYALNF beta TRBV30 TRBJ2-5 CDR3: CAWSAQGETQYF", "values": [{"measurement": "binding result", "setting": "[1]", "result": "recognises"}]}
{"binder": "Clone_2062 (TCR) alpha TRAV20 TRAJ39 CDR3: CAVQAGNAGNMLTF beta TRBV7-6 TRBJ2-2 CDR3: CASASGVVGELFF", "values": [{"measurement": "binding result", "setting": "[4]", "result": "recognises"}]}
{"binder": "Clone_578 (TCR) alpha TRAV8-3 TRAJ32 CDR3: CAVGAGYGGATNKLIF beta TRBV12-3 TRBJ2-7 CDR3: CASSFRGGGNPYEQYF", "values": [{"measurement": "binding result", "setting": "[5]", "result": "recognises"}]}
{"binder": "Clone_271 (TCR) alpha TRAV20 TRAJ39 CDR3: CAVQAGNAGNMLTF beta TRBV7-6 TRBJ2-2 CDR3: CASSLGVTGELFF", "values": [{"measurement": "binding result", "setting": "[4]", "result": "recognises"}]}
{"binder": "Clone_295 (TCR) alpha TRAV5 TRAJ22 CDR3: CAESTSGSARQLTF beta TRBV30 TRBJ2-1 CDR3: CAWMGGYNEQFF", "values": [{"measurement": "binding result", "setting": "[6]", "result": "recognises"}]}
{"binder": "Clone_904 (TCR) alpha TRAV9-2 TRAJ52 CDR3: CALSDYSGTSYGKLTF beta TRBV11-2 TRBJ2-1 CDR3: CASSLIPYNEQFF", "values": [{"measurement": "binding result", "setting": "[4]", "result": "recognises"}]}
{"binder": "Clone_2312 (TCR) alpha TRAV14DV4 TRAJ15 CDR3: CAMREMNQAGTALIF beta TRBV6-2 TRBJ1-5 CDR3: CASTKGGTHQPQHF", "values": [{"measurement": "binding result", "setting": "[7]", "result": "recognises"}]}
{"binder": "Clone_2073 (TCR) alpha TRAV8-6 TRAJ57 CDR3: CAVKLQGGSEKLVF beta TRBV2 TRBJ1-5 CDR3: CASKYNRGEQPQHF", "values": [{"measurement": "binding result", "setting": "[8]", "result": "recognises"}]}
{"binder": "Clone_262 (TCR) alpha TRAV12-3 TRAJ29 CDR3: CAMEGGRYNTPLVF beta TRBV5-6 TRBJ1-1 CDR3: CASSVNRGHNTEAFF", "values": [{"measurement": "binding result", "setting": "[4]", "result": "recognises"}]}
{"binder": "Clone_5 (TCR) alpha TRAV3 TRAJ13 CDR3: CAVRDSFSGGYQKVTF beta TRBV12-4 TRBJ2-7 CDR3: CASSPLAGAWSYEQYF", "values": [{"measurement": "binding result", "setting": "[2]", "result": "recognises"}]}
{"binder": "Clone_478 (TCR) alpha TRAV3 TRAJ28 CDR3: CAVRDMRGAGSYQLTF beta TRBV6-5 TRBJ2-7 CDR3: CASSLGTGTGVYEQYF", "values": [{"measurement": "binding result", "setting": "[9]", "result": "recognises"}]}
{"binder": "Clone_667 (TCR) alpha TRAV5 TRAJ7 CDR3: CAERLYGNNRLAF beta TRBV6-1 TRBJ2-7 CDR3: CASTLLWGGDSYEQYF", "values": [{"measurement": "binding result", "setting": "[4]", "result": "recognises"}]}
